Reference: publication PMC3951439 (Science (New York, N.Y.), 2013)

Molecular target: PRC2 (Homo sapiens, UniProt Q15910)
Assay: PRC2 histone methyltransferase assay on nucleosomes
Assay type: biochemical
Conditions: peptide titration, µM concentrations; fluorography (Fig. 3E, fig. S3, D and E)

Chain of PRC2 (Q15910 whole entry): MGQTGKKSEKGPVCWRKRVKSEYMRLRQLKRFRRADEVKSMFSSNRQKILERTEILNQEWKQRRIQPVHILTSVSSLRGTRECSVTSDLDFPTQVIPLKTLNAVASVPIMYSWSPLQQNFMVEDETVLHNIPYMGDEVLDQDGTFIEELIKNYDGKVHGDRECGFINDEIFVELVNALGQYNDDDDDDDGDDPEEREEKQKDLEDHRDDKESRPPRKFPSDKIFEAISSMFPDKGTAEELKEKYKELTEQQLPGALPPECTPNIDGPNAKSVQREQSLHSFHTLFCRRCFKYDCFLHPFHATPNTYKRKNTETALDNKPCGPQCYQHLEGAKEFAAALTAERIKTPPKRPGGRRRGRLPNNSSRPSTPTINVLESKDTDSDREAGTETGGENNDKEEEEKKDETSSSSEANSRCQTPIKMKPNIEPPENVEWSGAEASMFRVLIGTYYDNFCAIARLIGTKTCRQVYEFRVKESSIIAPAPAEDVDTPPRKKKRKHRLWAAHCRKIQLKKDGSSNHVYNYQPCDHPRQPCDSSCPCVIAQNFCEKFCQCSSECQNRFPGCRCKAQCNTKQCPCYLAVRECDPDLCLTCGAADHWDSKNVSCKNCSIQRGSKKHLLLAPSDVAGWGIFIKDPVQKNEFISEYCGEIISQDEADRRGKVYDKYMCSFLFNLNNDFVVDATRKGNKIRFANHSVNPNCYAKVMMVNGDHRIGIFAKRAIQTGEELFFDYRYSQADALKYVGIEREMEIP
Chain of PRC2 (O75530 whole entry partner): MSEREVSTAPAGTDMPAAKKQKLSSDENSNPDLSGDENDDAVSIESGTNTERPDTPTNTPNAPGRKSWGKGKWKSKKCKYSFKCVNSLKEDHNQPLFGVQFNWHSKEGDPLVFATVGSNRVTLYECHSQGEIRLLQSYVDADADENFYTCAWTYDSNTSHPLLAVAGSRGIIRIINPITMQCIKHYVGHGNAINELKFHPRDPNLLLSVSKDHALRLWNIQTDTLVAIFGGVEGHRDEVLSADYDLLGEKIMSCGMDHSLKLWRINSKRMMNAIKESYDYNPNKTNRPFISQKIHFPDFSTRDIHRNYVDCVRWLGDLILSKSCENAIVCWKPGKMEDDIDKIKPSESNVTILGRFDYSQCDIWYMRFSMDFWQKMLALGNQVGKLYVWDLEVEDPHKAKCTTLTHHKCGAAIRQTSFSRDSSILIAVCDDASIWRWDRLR
Chain of PRC2 (Q6ZN18 whole entry partner): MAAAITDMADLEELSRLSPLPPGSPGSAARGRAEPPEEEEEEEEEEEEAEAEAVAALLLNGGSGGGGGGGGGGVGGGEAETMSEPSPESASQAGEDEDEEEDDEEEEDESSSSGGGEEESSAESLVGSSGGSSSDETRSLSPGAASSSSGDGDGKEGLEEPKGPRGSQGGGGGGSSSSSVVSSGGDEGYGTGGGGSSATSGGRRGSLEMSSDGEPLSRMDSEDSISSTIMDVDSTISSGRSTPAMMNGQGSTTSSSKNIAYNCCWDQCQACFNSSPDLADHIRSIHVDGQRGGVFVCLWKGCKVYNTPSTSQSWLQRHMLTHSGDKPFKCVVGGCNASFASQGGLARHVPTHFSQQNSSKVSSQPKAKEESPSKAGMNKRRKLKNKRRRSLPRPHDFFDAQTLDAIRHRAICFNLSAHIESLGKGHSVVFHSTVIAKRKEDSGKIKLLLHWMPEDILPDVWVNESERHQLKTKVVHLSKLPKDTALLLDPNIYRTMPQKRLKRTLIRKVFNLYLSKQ
Chain of PRC2 (Q15022 whole entry partner): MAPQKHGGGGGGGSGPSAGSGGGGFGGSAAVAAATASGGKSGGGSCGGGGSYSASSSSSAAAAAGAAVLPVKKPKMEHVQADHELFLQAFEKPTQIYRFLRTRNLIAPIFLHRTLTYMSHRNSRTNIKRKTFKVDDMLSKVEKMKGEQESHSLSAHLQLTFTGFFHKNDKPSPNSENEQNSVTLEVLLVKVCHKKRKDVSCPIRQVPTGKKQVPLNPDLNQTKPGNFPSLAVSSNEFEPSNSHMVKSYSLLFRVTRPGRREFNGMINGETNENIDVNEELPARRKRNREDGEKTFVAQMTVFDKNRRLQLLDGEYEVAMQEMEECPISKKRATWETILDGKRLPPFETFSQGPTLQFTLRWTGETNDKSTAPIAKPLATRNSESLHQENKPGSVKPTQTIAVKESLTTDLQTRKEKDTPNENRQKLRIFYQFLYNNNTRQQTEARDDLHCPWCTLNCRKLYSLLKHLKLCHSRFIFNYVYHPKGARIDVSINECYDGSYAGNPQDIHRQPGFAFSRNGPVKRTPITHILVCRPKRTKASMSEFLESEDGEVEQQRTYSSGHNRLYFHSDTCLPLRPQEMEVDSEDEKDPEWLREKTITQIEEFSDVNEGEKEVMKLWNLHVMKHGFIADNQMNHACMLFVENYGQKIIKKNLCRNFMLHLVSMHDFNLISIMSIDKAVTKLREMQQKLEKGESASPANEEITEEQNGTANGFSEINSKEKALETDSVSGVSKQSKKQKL
Chain of PRC2 (Q09028 whole entry partner): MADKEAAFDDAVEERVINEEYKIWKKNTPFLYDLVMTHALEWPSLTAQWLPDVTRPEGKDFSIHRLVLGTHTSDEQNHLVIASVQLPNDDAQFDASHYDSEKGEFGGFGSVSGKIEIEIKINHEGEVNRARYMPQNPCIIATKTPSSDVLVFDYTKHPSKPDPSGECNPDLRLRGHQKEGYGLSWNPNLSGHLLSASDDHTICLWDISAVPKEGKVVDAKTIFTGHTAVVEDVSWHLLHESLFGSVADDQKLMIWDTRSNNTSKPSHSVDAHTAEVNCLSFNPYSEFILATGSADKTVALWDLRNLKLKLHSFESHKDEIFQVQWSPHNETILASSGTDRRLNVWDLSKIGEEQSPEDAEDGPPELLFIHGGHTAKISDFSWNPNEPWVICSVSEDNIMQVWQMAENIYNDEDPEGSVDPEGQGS

Substance: K27ac: H3 peptide (18 to 37) containing K27acetyl
- dose-dependent inhibition of PRC2 methyltransferase activity: not the K27ac peptide, could inhibit PRC2-dependent methyltransferase activity in a dose-dependent manner
